Source: patent publication US20220259593A1, “CONTROL OF MAMMALIAN GENE DOSAGE USING CRISPR” (The Regents of the University of California, priority 2019, published 2022)
Residue numbers refer to the chain shown, from its start.

B1: cr734 (nucleic acid)
guide: GTTTAAGAGCTAAGCTGGAAACAGCATCGCAAGTTTAAATAAGGCTAGTCCGTTCTCAACTTGAAAAAGTCGCACCGAGTCGGTGCT
modifications: listed as DNA, chemistry not fully specified
B2: cr679 (nucleic acid)
guide: B1 guide with C28A, G29T, T53G, C55A, C71G
modifications: listed as DNA, chemistry not fully specified
B3: cr913 (nucleic acid)
guide: B1 guide with C28A, T40C, C55A, C71G
modifications: listed as DNA, chemistry not fully specified
B4: cr622 (nucleic acid)
guide: B1 guide with C28A, C55A, A59G, T62G, A67C, T70C, C71G
modifications: listed as DNA, chemistry not fully specified
B5: cr766 (nucleic acid)
guide: B1 guide with C28A, C55A, T61A, A68T, C71G
modifications: listed as DNA, chemistry not fully specified
B6: cr406 (nucleic acid)
guide: B1 guide with C28A, C55A, C57T, C71G
modifications: listed as DNA, chemistry not fully specified
B7: cr667 (nucleic acid)
guide: B1 guide with C28A, T34C, C55A, T62C, A67G, C71G
modifications: listed as DNA, chemistry not fully specified
B8: cr699 (nucleic acid)
guide: B1 guide with C28A, C45G, G48C, C55A, T61G, T62C, A67G, A68C, C71G
modifications: listed as DNA, chemistry not fully specified
B9: cr133 (nucleic acid)
guide: B1 guide with C28A, T46A, T49C, C55A, C71G
modifications: listed as DNA, chemistry not fully specified
B10: cr746 (nucleic acid)
guide: B1 guide with C28A, G33A, C55A, A65C, C71G
modifications: listed as DNA, chemistry not fully specified
B11: cr840 (nucleic acid)
guide: B1 guide with C28A, C55A, A65G, C71A
modifications: listed as DNA, chemistry not fully specified
B12: cr549 (nucleic acid)
guide: B1 guide with C28A, C55A, T61C, A68G, C71G
modifications: listed as DNA, chemistry not fully specified
B13: cr442 (nucleic acid)
guide: B1 guide with C28A, T34C, C55A, T61C, A68G, C71G
modifications: listed as DNA, chemistry not fully specified
B14: cr607 (nucleic acid)
guide: B1 guide with C28A, C55A, C71G, G79A, T80C
modifications: listed as DNA, chemistry not fully specified
B15: cr292 (nucleic acid)
guide: B1 guide with C28A, C55A
modifications: listed as DNA, chemistry not fully specified
B16: cr917 (nucleic acid)
guide: B1 guide with C28A, C45T, G48A, C55A, C71G, C75T, G77T, C81A, G83A
modifications: listed as DNA, chemistry not fully specified
B17: cr213 (nucleic acid)
guide: B1 guide with C28A, G29A, A42G, C55A, A65G, C71G
modifications: listed as DNA, chemistry not fully specified
B18: cr552 (nucleic acid)
guide: B1 guide with C28A, T53A, C55G, T56G, C71G
modifications: listed as DNA, chemistry not fully specified
B19: cr279 (nucleic acid)
guide: B1 guide with C28A, C55A, C71G, T80C, T87C
modifications: listed as DNA, chemistry not fully specified
B20: cr086 (nucleic acid)
guide: B1 guide with A6C, G7T, C28A, C55A, C71G
modifications: listed as DNA, chemistry not fully specified
B21: cr793 (nucleic acid)
guide: B1 guide with C28A, C55A, C71G, G83T
modifications: listed as DNA, chemistry not fully specified
B22: cr658 (nucleic acid)
guide: B1 guide with C28A, C45A, G48T, C55A, C60T, T62C, A67G, G69A, C71G
modifications: listed as DNA, chemistry not fully specified
B23: cr189 (nucleic acid)
guide: B1 guide with C28A, C55A, C71G, G77A
modifications: listed as DNA, chemistry not fully specified
B24: cr844 (nucleic acid)
guide: B1 guide with C28A, C55A, A59G, T70C, C71G, C75T, C76T, G82A, G83A
modifications: listed as DNA, chemistry not fully specified
B25: cr001 (nucleic acid)
guide: B1 guide with G1A, C28A, C55A, C71G
modifications: listed as DNA, chemistry not fully specified
B26: cr596 (nucleic acid)
guide: B1 guide with C28A, C55A, C71G, C73G
modifications: listed as DNA, chemistry not fully specified
B27: cr017 (nucleic acid)
guide: B1 guide with A6G, C28A, C55A, C71G
modifications: listed as DNA, chemistry not fully specified
B28: cr815 (nucleic acid)
guide: B1 guide with C28A, C55A, C71G, G83A
modifications: listed as DNA, chemistry not fully specified
B29: cr026 (nucleic acid)
guide: B1 guide with A5G, G7T, C28A, C55A, C71G
modifications: listed as DNA, chemistry not fully specified
B30: cr861 (nucleic acid)
guide: B1 guide with C28A, C55A, T56G, C71A
modifications: listed as DNA, chemistry not fully specified
B31: cr650 (nucleic acid)
guide: B1 guide with C28A, C55A, C57G, C71G
modifications: listed as DNA, chemistry not fully specified
B32: cr293 (nucleic acid)
guide: B1 guide with C28A, C55A, C71G, C73G, G77A, C81T, G85C
modifications: listed as DNA, chemistry not fully specified
B33: cr501 (nucleic acid)
guide: B1 guide with C28A, C55A, A65G, C71G, G72T, C86A
modifications: listed as DNA, chemistry not fully specified
B34: cr937 (nucleic acid)
guide: B1 guide with C28A, C45G, G48C, C55A, T62C, A67G, C71G, C76A, G82T
modifications: listed as DNA, chemistry not fully specified
B35: cr885 (nucleic acid)
guide: B1 guide with C28A, A31C, C55A, C71T
modifications: listed as DNA, chemistry not fully specified
B36: cr962 (nucleic acid)
guide: B1 guide with C28A, C55A, C71G, C73G, G77C, C81G, G85C
modifications: listed as DNA, chemistry not fully specified
B37: cr437 (nucleic acid)
guide: B1 guide with C28A, C55A, T61G, A68C, C71G, C76A, G77C, C81G, G82T
modifications: listed as DNA, chemistry not fully specified
B38: cr273 (nucleic acid)
guide: B1 guide with C28A, G44T, C50A, C55A, A65G, C71G
modifications: listed as DNA, chemistry not fully specified
B39: cr848 (nucleic acid)
guide: B1 guide with C28A, C55A, A65G, C71G, A78G
modifications: listed as DNA, chemistry not fully specified
B40: cr441 (nucleic acid)
guide: B1 guide with C28A, C55A, C57A, C71G
modifications: listed as DNA, chemistry not fully specified
B41: cr877 (nucleic acid)
guide: B1 guide with C28A, C55A, T61C, A68G, C71G, G72C, C76G, G82C, C86G
modifications: listed as DNA, chemistry not fully specified

Test system: K562 CRISPRi cells
Experiment: Constant region variant library pooled growth screen, K562
Assay type: cell-based, human
Details: sgRNA constant region variants; activity relative to the original, un-modified constant region cr995
Procedure, shortened: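 Cells were selected with puromycin for 2 days and then kept in RPMI-1640 spinner cultures, with duplicates handled separately. Targeting sequences comprised 3 sgRNAs per essential gene for 10 genes plus six non-targeting controls. Activities were normalized against pairing with the unmodified scaffold.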

Molecule | Mean relative activity
B1 | 0.6906
B2 | 0.6292
B3 | 0.633
B4 | 1.099
B5 | 1.051
B6 | 0.6285
B7 | 0.6533
B8 | 0.6628
B9 | 0.6664
B10 | 0.629
B11 | 0.6688
B12 | 1.051
B13 | 0.6169
B14 | 0.6847
B15 | 0.6902
B16 | 0.6521
B17 | 0.6325
B18 | 0.6864
B19 | 0.6783
B20 | 0.614
B21 | 0.6343

Molecule | Mean relative activity
B22 | 0.6883
B23 | 0.627
B24 | 0.6346
B25 | 0.6312
B26 | 0.69
B27 | 0.639
B28 | 0.6583
B29 | 0.6314
B30 | 0.6319
B31 | 0.6158
B32 | 1.052
B33 | 1.052
B34 | 0.6137
B35 | 0.6498
B36 | 0.6733
B37 | 0.6854
B38 | 0.6725
B39 | 0.6714
B40 | 0.622
B41 | 0.686
